Experimental data published in patent US20220056094A1 (JIANGSU HENGRUI MEDICINE, published 2022).
Substitutions are numbered along the chain they refer to. Names may count otherwise.

B1: IL-2-03 (Q11C/L132C) (ligand)
chain: MAPTSSSTKKTCLQLEHLLLDLQMILNGINNYKNPKLTRMLTFKFYMPKKATELKHLQCLEEELKPLEEVLNLAQSKNFHLRPRDLISNINVIVLELKGSETTFMCEYADETATIVEFLNRWITFAQSIISTCT
notes: The entry already carries the mutations and C125A and begins with M. Made in E. coli
B2: IL-2-04 (L70C/P82C) (ligand)
chain: B1 chain with C12Q, L71C, P83C, C133L
notes: as for B1
B3: IL-2-05 (G27C/F78C) (ligand)
chain: B1 chain with C12Q, G28C, F79C, C133L
notes: as for B1
B4: IL-2-07 (F42A/Y45A) (ligand)
chain: B1 chain with C12Q, F43A, Y46A, C133L
notes: as for B1
B5: IL-2-08 (F42A/L72G) (ligand)
chain: B1 chain with C12Q, F43A, L73G, C133L
notes: as for B1
B6: IL-2-09 (Y45A/L72G) (ligand)
chain: B1 chain with C12Q, Y46A, L73G, C133L
notes: as for B1
B7: IL-2-06 (… at positions 29-44 mutated into QSMHIDATL) (ligand)
chain: MAPTSSSTKKTQLQLEHLLLDLQMILNGIQSMHIDATLYMPKKATELKHLQCLEEELKPLEEVLNLAQSKNFHLRPRDLISNINVIVLELKGSETTFMCEYADETATIVEFLNRWITFAQSIISTLT
notes: The entry already carries the replacement and C125A and begins with M. Made in E. coli
B8: IL-2-10 (N26Q/N30S/F42A/L72G) (ligand)
chain: B1 chain with C12Q, N27Q, N31S, F43A, L73G, C133L
notes: as for B1
B9: IL-2-22 (N26Q/N29S/F42A/N71Q/L72G) (ligand)
chain: B1 chain with C12Q, N27Q, N30S, F43A, N72Q, L73G, C133L
B10: PEGylated IL-2-24 (ligand)
chain: B1 chain with C12Q, N27Q, N30S, N89R, C133L
modifications: mono-PEGylated with 20 kDa mPEG-butyraldehyde (sodium cyanoborohydride); site not stated

Target: T1, high-affinity receptor IL-2Rα/β/γ on CTLL2 cells (mouse-derived cell line) (mouse, UniProt P01590 22-268; P16297 27-539; P34902 23-369)
T1 sequence (looked up) 1: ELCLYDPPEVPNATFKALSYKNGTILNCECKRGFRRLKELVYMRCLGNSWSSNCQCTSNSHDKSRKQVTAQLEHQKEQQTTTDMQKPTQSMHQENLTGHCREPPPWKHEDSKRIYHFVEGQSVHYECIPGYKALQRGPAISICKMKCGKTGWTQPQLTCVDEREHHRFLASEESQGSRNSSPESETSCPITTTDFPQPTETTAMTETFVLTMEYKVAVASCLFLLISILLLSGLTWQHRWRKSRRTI
T1 sequence (looked up) 2: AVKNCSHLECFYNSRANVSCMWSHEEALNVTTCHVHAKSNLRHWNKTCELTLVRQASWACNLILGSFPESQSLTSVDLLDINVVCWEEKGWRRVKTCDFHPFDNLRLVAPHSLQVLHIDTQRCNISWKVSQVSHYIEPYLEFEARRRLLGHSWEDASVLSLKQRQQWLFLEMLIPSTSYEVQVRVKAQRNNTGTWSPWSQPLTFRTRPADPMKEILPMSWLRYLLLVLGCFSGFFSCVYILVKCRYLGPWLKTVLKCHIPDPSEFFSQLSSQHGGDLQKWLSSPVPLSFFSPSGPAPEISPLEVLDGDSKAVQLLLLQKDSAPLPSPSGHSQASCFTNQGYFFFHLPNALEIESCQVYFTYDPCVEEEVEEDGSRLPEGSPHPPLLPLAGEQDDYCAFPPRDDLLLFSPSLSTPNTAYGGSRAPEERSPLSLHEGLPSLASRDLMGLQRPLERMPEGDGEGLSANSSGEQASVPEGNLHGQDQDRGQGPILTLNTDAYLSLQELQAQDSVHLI
T1 sequence (looked up) 3: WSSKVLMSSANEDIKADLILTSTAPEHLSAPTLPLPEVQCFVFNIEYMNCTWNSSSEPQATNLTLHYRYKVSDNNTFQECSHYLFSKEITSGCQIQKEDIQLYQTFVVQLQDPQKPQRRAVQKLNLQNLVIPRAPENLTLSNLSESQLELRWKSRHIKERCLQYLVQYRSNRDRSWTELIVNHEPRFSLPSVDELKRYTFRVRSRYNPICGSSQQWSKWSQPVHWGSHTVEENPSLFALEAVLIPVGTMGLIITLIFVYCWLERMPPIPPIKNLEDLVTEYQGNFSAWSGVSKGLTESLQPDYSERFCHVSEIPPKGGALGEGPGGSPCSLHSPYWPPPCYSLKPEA
Assay: cell-based or functional assay

Row | Binder | relative biological activity (CTLL2 cell proliferation) [%]
1 | B1 | 162
2 | B2 | 176
3 | B3 | 229
4 | B4 | 4
5 | B5 | 7
6 | B6 | 2
7 | B7 | 4

Target: T1, high-affinity receptor IL-2Rα/β/γ on …
Assay: cell-based or functional assay
Remark: another data set of the same source

Row | Binder | EC50 (CTLL2 cell proliferation) [nM] | relative biological activity (CTLL2 cell proliferation) [%]
8 | B8 | 4.8 | 1
9 | B9 | 5.73 | 0.9

Target: T2, medium-affinity receptor IL-2Rβ/γ on human cells (Mo7e cell line; human CD8+T and NK cells) (human, UniProt P14784 27-551; P31785 23-369)
T2 sequence (looked up) 1: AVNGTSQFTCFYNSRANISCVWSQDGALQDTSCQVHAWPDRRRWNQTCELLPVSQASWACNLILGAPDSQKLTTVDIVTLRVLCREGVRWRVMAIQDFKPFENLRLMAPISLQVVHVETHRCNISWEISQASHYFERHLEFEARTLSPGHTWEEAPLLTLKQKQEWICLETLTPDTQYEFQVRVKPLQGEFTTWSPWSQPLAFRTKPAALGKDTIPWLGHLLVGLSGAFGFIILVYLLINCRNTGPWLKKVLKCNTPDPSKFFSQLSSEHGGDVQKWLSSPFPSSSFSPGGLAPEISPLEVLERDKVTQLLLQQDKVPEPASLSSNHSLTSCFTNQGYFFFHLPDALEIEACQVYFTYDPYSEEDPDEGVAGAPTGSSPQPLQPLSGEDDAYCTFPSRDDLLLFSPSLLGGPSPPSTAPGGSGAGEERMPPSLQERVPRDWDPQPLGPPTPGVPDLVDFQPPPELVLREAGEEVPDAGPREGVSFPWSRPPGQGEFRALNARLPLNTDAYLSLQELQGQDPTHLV
T2 sequence (looked up) 2: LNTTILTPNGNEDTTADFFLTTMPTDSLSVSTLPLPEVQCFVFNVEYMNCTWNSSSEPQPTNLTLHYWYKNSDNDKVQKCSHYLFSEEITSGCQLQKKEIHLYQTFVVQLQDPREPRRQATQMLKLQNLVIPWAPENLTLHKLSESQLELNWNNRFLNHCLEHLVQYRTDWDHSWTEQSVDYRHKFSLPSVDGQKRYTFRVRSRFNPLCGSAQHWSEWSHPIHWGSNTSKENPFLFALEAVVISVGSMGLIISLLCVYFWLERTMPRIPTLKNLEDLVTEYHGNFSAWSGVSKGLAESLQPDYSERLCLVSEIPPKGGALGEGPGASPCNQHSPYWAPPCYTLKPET
Assay: cell-based or functional assay

Row | Binder | EC50 (Mo7e cell proliferation) [nM] | relative biological activity (Mo7e cell proliferation) [%]
10 | B8 | 1.78 | 137
11 | B9 | 2.84 | 86

Target: T1, high-affinity receptor IL-2Rα/β/γ on …
Assay: cell-based or functional assay
Remark: another data set of the same source

Row | Binder | EC50 (STAT5 phosphorylation in CTLL2 cells) [nM] | relative biological activity (STAT5 phosphorylation in CTLL2 cells) [%]
12 | B4 | 2.45 | 0.41
13 | B5 | 3.93 | 0.25
14 | B6 | 4.02 | 0.25

Target: T3, IL-2 receptor IL-2Rα/β/γ on human peripheral blood Treg cells (human, UniProt P01589 22-272; P14784 27-551; P31785 23-369)
T3 sequence (looked up) 1: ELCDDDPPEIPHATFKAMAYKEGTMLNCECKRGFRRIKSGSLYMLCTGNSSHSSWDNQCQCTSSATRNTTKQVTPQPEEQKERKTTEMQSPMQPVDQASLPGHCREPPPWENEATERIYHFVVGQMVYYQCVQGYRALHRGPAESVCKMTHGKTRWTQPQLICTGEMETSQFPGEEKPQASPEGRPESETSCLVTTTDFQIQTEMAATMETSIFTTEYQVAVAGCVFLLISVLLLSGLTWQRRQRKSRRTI
T3 sequence (looked up) 2: T2 sequence (looked up) 1
T3 sequence (looked up) 3: T2 sequence (looked up) 2
Assay: cell-based or functional assay

Row | Binder | EC50 (STAT5 phosphorylation in human Treg cells) [nM] | relative biological activity (STAT5 phosphorylation in human Treg cells) [%]
15 | B10 | 6.02 | 0.007

Target: T4, IL-2Rβ/γ-Fc heterodimer (IL-2Rβ-Fc-hole with IL-2Rγ-Fc-knob)
T4 construct: Co-expressed in HEK293 cells and purified with Protein A and Superdex 200
T4 sequence (chain, as listed by the source limits assumed, chain 1 of 2): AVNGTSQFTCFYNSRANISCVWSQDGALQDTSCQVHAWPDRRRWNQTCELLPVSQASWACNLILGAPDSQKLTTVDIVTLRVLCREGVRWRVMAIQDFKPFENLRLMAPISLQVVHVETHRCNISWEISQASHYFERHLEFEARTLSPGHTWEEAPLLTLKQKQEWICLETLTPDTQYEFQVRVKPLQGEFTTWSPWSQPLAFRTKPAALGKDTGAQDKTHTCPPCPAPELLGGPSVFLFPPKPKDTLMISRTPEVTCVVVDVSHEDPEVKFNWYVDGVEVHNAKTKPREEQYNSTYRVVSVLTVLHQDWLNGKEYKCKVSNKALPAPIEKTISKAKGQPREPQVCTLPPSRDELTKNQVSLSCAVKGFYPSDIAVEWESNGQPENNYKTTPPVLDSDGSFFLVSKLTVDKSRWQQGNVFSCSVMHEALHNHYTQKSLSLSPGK
T4 sequence (chain, as listed by the source limits assumed, chain 2 of 2): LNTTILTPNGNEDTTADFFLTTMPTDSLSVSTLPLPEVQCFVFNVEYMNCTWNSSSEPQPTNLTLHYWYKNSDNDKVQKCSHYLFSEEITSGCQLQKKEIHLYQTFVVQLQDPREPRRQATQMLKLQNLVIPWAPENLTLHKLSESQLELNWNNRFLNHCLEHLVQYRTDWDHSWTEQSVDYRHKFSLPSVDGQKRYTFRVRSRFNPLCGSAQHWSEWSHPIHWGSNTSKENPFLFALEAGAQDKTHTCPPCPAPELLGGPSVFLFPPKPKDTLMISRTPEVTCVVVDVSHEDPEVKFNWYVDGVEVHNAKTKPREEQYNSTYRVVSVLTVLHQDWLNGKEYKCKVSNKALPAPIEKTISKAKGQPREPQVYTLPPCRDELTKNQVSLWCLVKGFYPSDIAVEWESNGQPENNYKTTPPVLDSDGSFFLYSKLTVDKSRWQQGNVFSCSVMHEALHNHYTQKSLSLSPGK
Assay: SPR (Biacore), IL-2Rβ/γ-Fc captured on Protein A chip, 1:1 model
Protocol: The Protein A sensor chip (GE, Cat #29127556) of the Biacore instrument (Biacore T200, GE) was used to capture IL-2Rβ/γ-Fc, wherein IL-2Rβ/γ-Fc was diluted with 1×HBS-EP to 1 μg/mL, and flowed at a flow rate of 10 μL/min for 30 seconds. […] The Biacore instrument (Biacore X100, GE) was used to detect the reaction in real time, to obtain association and dissociation curves. After each cycle of dissociation was completed, the chip was washed and regenerated with 10 mM Gly-HCl pH 1.5.

Row | Binder | Kd [nM] | koff [s⁻¹] | kon [M⁻¹ s⁻¹]
16 | B1 | 0.253 | 0.000135 | 533000
17 | B2 | 0.302 | 0.00015 | 498000
18 | B3 | 0.288 | 9.68e-05 | 336000
19 | B4 | 0.261 | 0.000215 | 822000
20 | B5 | 0.224 | 0.000206 | 920000
21 | B6 | 0.344 | 0.000222 | 646000
22 | B8 | 0.266 | 0.00043 | 1.62e+06
23 | B7 | 0.509 | 0.000436 | 856000

Target: T5, his-tagged human IL-2Rα recombinant protein (SinoBiological, Cat #10165-H08H) (human, UniProt P01589 22-213)
T5 construct: Bought protein; also called IL-2Rα (His Tag)
T5 sequence: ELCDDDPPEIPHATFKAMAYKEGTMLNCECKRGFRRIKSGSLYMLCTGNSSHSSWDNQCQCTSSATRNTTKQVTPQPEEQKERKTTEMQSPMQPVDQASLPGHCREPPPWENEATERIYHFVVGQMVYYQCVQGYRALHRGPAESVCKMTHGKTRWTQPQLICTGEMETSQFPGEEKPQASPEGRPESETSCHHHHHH
Assay: ELISA, his-tagged IL-2Rα coated, HRP anti-IL-2 polyclonal detection
Protocol: 96-well microtiter plate was coated with 2 μg/mL his-tagged IL-2Rα recombinant protein (SinoBiological, Cat #10165-H08H), and incubated overnight at 4° C. The plate was washed with washing solution for three times, 250 μl per well. For each time of washing, the plate was shaken for 10 seconds to ensure sufficient washing. 200 μl/well blocking solution was added and incubated at room temperature for 2 hours. The plate was washed with washing solution for three times, 250 μl per well. For each time of washing, the plate was shaken for 10 seconds to ensure sufficient washing. […] The plate was incubated for 1 hour at room temperature. The plate was washed with washing solution for three times, 250 μl per well. […] The plate was incubated for 1 hour at room temperature. The plate was washed with washing solution for three times, 250 μl per well. 100 μl TMB was added to each well, and the reaction was performed for 15 minutes in the dark. 50 μl of 0.16 M sulfuric acid was added to each well.

Row | Binder | EC50 [nM]
24 | B1 | 1.53
25 | B2 | 0.87
26 | B3 | 0.6
